From patent US20120259096A1
Changes are numbered by the printed parent chain.

B1: CA167_00983 (antibody, from another filing, rabbit IgG1, V domains shown)
VH: QSVEESGGRLVTPGTPLTLTCTVSGFSLSNYAMSWVRQAPGKGLEWIGIIGKSGSTAYASWAKGRFTISRTSTTVDLEITSPTTEDTATYFCVRFVLLWGPGTLVTVS
VL: AQVLTQTASPVSAAVGGTVTINCQSSQSVYKNNDLAWYQQKPGQPPKLLIYYASTLASGVSSRFKGSGSGTEFTLTISDAQCDDAATYYCLGSYDCSSADCNAFGGGTKVVVK
B2: CA167_01080 (antibody, from another filing, rabbit IgG1, V domains shown)
VH: QSLEESGGRLVTPETPLTLTCTASGIDLSKWPMTWVRQAPGKGLEWIGIIGRSGSTNYASWAKGRFTISKTSTTVDLKMTSPTTEDTATYFCARGGSYYDLWGQGTLVTVS
VL: B1 VL with G17N, N22T, Y30W, A36S, P42L, G66A, E72Q, A80V, A86G, L91V

Tests used:
[1] = target: human Nav1.7 channel (type IX voltage-gated sodium channel alpha subunit) (human) (UniProt Q15858); test: cell-based or functional assay
[2] = target: recombinant rat Nav1.7 channels expressed in HEK cells (rat) (UniProt O08562); test: cell-based or functional assay
Chain of recombinant rat Nav1.7 channels expressed in HEK cells (rat) (O08562 whole entry): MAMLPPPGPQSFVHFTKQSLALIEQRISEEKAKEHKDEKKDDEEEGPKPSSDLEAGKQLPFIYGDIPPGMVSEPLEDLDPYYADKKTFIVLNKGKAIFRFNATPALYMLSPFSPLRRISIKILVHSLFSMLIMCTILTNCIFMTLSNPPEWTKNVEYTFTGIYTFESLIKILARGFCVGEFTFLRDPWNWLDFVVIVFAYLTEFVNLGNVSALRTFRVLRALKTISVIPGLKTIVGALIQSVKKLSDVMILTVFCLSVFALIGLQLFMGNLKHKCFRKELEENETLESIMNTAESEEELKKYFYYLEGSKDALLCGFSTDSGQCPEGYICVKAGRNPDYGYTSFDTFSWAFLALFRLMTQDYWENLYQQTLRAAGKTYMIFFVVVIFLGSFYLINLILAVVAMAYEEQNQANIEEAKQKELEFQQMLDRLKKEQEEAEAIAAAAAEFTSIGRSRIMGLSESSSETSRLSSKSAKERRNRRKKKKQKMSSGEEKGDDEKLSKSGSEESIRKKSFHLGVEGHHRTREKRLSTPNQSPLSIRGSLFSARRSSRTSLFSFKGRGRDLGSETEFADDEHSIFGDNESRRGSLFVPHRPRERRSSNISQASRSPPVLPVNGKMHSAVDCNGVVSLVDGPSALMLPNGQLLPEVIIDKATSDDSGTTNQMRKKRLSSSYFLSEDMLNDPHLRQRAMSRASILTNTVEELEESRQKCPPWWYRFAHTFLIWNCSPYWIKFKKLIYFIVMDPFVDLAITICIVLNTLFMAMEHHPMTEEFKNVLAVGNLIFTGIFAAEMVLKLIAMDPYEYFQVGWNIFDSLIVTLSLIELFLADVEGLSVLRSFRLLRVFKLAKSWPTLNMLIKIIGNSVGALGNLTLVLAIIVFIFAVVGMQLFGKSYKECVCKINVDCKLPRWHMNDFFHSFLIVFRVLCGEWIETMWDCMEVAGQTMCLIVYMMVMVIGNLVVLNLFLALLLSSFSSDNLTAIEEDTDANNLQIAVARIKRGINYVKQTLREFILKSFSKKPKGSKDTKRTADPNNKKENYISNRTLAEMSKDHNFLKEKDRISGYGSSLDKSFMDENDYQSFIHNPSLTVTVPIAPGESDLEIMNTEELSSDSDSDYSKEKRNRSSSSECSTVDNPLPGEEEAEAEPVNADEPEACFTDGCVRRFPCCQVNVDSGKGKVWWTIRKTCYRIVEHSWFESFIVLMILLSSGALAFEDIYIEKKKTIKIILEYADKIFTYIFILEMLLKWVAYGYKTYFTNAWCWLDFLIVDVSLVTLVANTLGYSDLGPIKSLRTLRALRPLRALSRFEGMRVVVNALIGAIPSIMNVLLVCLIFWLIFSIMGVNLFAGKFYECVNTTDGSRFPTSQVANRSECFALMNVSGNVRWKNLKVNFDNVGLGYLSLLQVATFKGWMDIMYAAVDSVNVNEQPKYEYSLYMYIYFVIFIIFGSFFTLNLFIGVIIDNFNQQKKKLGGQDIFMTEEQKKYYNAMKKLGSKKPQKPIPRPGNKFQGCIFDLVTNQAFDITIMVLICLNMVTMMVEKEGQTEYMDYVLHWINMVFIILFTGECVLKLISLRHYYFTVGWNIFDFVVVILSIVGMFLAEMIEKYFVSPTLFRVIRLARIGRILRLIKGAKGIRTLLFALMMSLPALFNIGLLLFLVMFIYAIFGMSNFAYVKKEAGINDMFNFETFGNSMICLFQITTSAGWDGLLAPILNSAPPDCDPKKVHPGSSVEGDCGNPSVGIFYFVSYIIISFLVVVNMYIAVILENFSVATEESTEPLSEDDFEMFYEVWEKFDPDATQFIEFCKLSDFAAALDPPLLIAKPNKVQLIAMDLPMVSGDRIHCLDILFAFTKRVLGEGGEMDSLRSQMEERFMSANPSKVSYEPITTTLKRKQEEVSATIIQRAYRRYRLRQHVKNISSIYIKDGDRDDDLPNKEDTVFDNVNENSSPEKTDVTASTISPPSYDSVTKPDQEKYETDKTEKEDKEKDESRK

| Binder | Nav1.7 inhibition (%), automated patch clamp on HEK cells, antibody at 25 µg/ml [1] [%] | inhibition of Nav1.7 currents, automated patch clamp on HEK cells, antibody at 25 µg/ml [2] [%] |
| --- | --- | --- |
| B1 | 41 | – |
| B2 | 46 | 26 |
